Results reported in patent EP1506971A1.

Key:
[1] = target: prokineticin receptor(s) of guinea pig ileal membrane / ileal smooth muscle (guinea pig); test: cell-based or functional assay
[2] = target: prokineticin receptor expressed endogenously on M2A7 melanoma cells (ATCC CRL-2500); test: cell-based or functional assay

Substance	ED50, contraction of guinea-pig ileum longitudinal muscle [1] [nM]	EC50, calcium mobilization in M2A7 melanoma cells (FLIPR) [2] [nM]
recombinant human prokineticin 2 (refolded, 6xHis-tagged, unlabeled) (from UniProt Q9HC23 28-129) (ligand)	0.9	21
recombinant human prokineticin 1 (refolded, 6xHis-tagged, unlabeled) (from UniProt P58294 20-105) (ligand)	0.46	12
